The target of experiment [1] is Poly-L-lysine hydrobromide (MW, 70,000-150,000 Da).
For experiment [2] the target is unchanged. The experiment can be described thus: co-sedimentation; precipitation rate of LOX: LOX mixed with PLL, centrifuged at 18,000 x g for 20 min at 25 °C, LOX in the supernatant by absorbance at 280 nm; 5 µM LOX, 1 mM PLL, 5-20 mM (NH4)2SO4.

B1: L-lactate oxidase (enzyme)
chain: MNNNDIEYNAPSEIKYIDVVNTYDLEEEASKVVPHGGFNYIAGASGDEWTKRANDRAWKHKLLYPRLAQDVEAPDTSTEILGHKIKAPFIMAPIAAHGLAHTTKEAGTARAVSEFGTIMSISAYSGATFEEISEGLNGGPRWFQIYMAKDDQQNRDILDEAKSDGATAIILTADSTVSGNRDRDVKNKFVYPFGMPIVQRYLRGTAEGMSLNNIYGASKQKISPRDIEEIAGHSGLPVFVKGIQHPEDADMAIKRGASGIWVSNHGARQLYEAPGSFDTLPAIAERVNKRVPIVFDSGVRRGEHVAKALASGADVVALGRPVLFGLALGGWQGAYSVLDYFQKDLTRVMQLTGSQNVEDLKGLDLFDNPYGYEY
In turn, B1 returned a relative enzyme activity of LOX (0.1 µM) with 0.02 mM PLL against LOX without PLL, 0-10 mM (NH4)2SO4 (about 15 times without and about five times with 10 mM ammonium sulfate) in experiment [1] of 15 fold. Moreover, the percent of LOX in the droplets in experiment [2] turned out to be 90%.

Values taken from publication PMC9877012.
